Source: US20230374148A1, “BINDING MOLECULES THAT MULTIMERISE CD45” (UCB BIOPHARMA SRL, priority 2020, published 2023)

Assays:
[1] = tested on: CD34+ stem cells in PBMCs; assay: Apoptosis of peripheral blood haematopoietic stem cells in PBMCs; assay type: cell-based, human; conditions: 24 hrs, 200-0.00632 nM
Experimental: Human whole blood (K2EDTA tubes) was received from one donor (#PR20T386505, from Cambridge Bioscience, UK). PBMCs were isolated from whole blood using pre-filled LeucoSep tubes (Greiner). Whole blood was layered on to the LeucoSep filter and tubes spun (800 g, 15 min, slow acceleration and deceleration, at RT). The buffy coat was extracted and cells washed twice in sterile PBS. PBMC were resuspended in 50 ml complete media (RPMI 1640+2 mM GlutaMAX+1% Pen/Strep, all previously supplied by Invitrogen, +10% Fetal Bovine Serum (FBS), Sigma Aldrich). Cells were counted using a ChemoMetec NucleoCounter NC-3000. 1×10^6 cells per well in 80 μl were then added to each well of a Corning Costar 96-well, cell culture treated, U-shaped-bottom microplate (cat no. 07-200-95).
In a Greiner 96-well non-binding microplate, Fab-X and Fab-Y combination 6294-X/4133-Y, was added to complete media to give a Fab-KD-Fab concentration of 1000 nM. Similarly, 1000 nM stocks of 4133-6294 BYbe and NegCtrl BYbe were prepared in complete media. The microplate was incubated for 1 hr at 37° C., 5% CO2. Following the incubation, Fab-KD-Fab and BYbe reagents were then serially diluted in complete media in a half log dilution series, 7 times to produce an 8-point dose curve. […]
Cells were analysed using the Bio-Rad ZE5 Cell Analyzer. […]

Human PBMC = assay: Apoptosis of PBMCs: reduction of PBMC cell subsets; assay type: cell-based; conditions: 24 hrs; for Bottom level of % subset cell reduction / Top level of % subset cell reduction: donor UCB Cone-802
Experimental: Human PBMC derived from blood leukocyte platelet-apheresis cones (NHSBT Oxford) were banked as frozen aliquots. Prior to an assay being performed, 2 vials of frozen cells, each containing 5×10^7 cells in 1 ml, were thawed in a 37° C. water bath and then added to 50 ml complete media (RPMI 1640+2 mM GlutaMAX+1% Pen/Strep, all previous supplied by Invitrogen, +10% Fetal Bovine Serum (FBS), Sigma Aldrich). Cells were spun (500 g, 5 min, at RT) and re-suspended in 30 ml complete media to wash and spun again. Cells were resuspended in 10 ml complete media and then counted using a ChemoMetec NucleoCounter NC-3000. 10^5 cells per well in 100 μl were then added to each well of a Corning Costar 96-well, cell culture treated, U-shaped-bottom microplate (cat no. 07-200-95). The plate was rested in a 37° C., 5% CO2 incubator for 2 hrs. PBMCs from two donors, UCB-Cones 801 and 802 were used in this assay.
Similarly, a 1500 nM stock of 4133-6294 BYbe in complete media was prepared. The microplate was incubated for 1 hr at 37° C., 5% CO2. Following the incubation, Fab-KD-Fab and BYbe reagents were then serially diluted in complete media 1 in 5, nine times to produce to form a 10-point dose curve.
Following the incubation, the plate was spun at 500 g, 5 min, RT, the buffer was aspirated with a BioTek ELx405 microplate washer, and the cells were re-suspended in FACS buffer (PBS+1% bovine serum albumin (BSA)+0.1% NaN3+2 mM EDTA, Sigma Aldrich) to wash and then re-spun and buffer was aspirated to leave the cells in 20 μl residual media. 20 μl of cell-specific marker antibody cocktail solution was added to the wells and incubated for 1 hr at 4° C. The antibody cocktail is detailed in Table 4 below.
Cells were analysed live using the Intellicyt iQue Screener PLUS. Live cell counts were extracted as metrics and graphical representations generated using Graphpad Prism version 8.1 (Graphpad). Asymmetric (five parameter) curve fitting was applied to derive maximal % cell reduction and EC50 values.

B1: 4133-6294 BYbe: anti-CD45 BYbe (Fab-scFv): 4133 Fab HC-G4S linker-6294 scFv heavy chain paired with 4133 light chain (antibody)
heavy: QEQLVESGGGLVQPEGSLTLTCTASGFSFSGNYYMCWVRQAPGKGLEWIGCLYTGSSGSTYYASWAKGRFTISKTSSTTVTLQMTSLTAADTATYFCARDLGYEIDGYGGLWGQGTLVTVSSGQPKAPSVFPLAPCCGDTPSSTVTLGCLVKGYLPEPVTVTWNSGTLTNGVRTFPSVRQSSGLYSLSSVVSVTSSSQPVTCNVAHPATNTKVDKTVAPSTCSKPGGGGSGGGGSEVQLVESGAELARPGASVKMSCKASGYTFTSYTMHWVKQRPGQCLEWIGYINPSSGYTEYNQKFKDKTTLTADKSSSTAYLQLSSLTSEDSAVYYCARVGDGFYPSWLAYWGQGTLVTVSSGGGGSGGGGSGGGGSGGGGSDIQMTQSPKFLLVSAGDRVTITCKASQSVRNDVAWYQQKPGQSPKLLIFYASKRYTGVPDRFTGSGYGTDFTFTISTVQAEDLAVYFCQQDYSSPTTFGCGTKLEIK
light: AQVLTQTPSPVSAVVGGTVSISCQASQSVYNNNNLSWYQQKPGQPPKLLIYDASKLASGVPSRFKGSGSGTQFTLTISGVQCDDAATYYCLGGYYSSGWYFAFGGGTKVVVKRTPVAPTVLIFPPAADQVATGTVTIVCVANKYFPDVTVTWEVDGTTQTTGIENSKTPQNSADCTYNLSSTLTLTSTQYNSHKEYTCKVTQGTTSVVQSFNRGDC
- reductions in CD34+ stem cells [1]: 53%
- reductions in total lymphocytes [1]: 98%
- almost maximal reductions in B cells (Human PBMC; B cells in PBMC, stated for both reagents): 87%
- Bottom level of % subset cell reduction (Human PBMC; B cells): 18.74%
- Top level of % subset cell reduction (Human PBMC; B cells): 87.09%
- Bottom level of % subset cell reduction (Human PBMC; CD4+ Memory): 24%
- Top level of % subset cell reduction (Human PBMC; CD4+ Memory): 99.76%
- Bottom level of % subset cell reduction (Human PBMC; CD4+ Naive): 18.53%
- Top level of % subset cell reduction (Human PBMC; CD4+ Naive): 99.04%
- Bottom level of % subset cell reduction (Human PBMC; CD4+): 20.22%
- Top level of % subset cell reduction (Human PBMC; CD4+): 99.2%
- Bottom level of % subset cell reduction (Human PBMC; CD8+): 0.543%
- Top level of % subset cell reduction (Human PBMC; CD8+): 98.36%
